Where two headings read alike, the source gives them in different places.

Assay [1] concerns the target T1, SARS-CoV-2 RBD subunit (recombinant) (SARS-CoV-2 Wuhan-Hu-1, UniProt P0DTC2).
T1 construct: source: bought: Sino Biologics
As to the kind of experiment: ELISA. Conditions: both partners purified. On the technique in general: ELISA stands for enzyme-linked immunosorbent assay.

Assay [2] deals with RsSHC014 RBD, yeast-displayed (Bat SARS-like coronavirus RsSHC014, UniProt U5WLK5). As to the kind of experiment: flow cytometry on cells. Conditions: one partner purified. In general terms: In flow cytometry, cells or beads pass a laser one at a time.
Assay [3] concerns the target SARS-CoV-1 RBD, yeast-displayed (SARS-CoV-1, strain  (P59594 …, UniProt P59594)). As to the kind of experiment: flow cytometry on cells. Conditions: one partner purified.
The target in assay [4] is SARS-CoV-2 Omicron XBB recombinant spike protein (trimer) (SARS-CoV-2 Omicron XBB (entry: XBB.1), strain).
Assay [5] has as its target T1, SARS-CoV-2 RBD subunit (recombinant).

B1: C68.239 (antibody, V domains shown)
VH: EVQLLESGGGLVQPGGSLRLSCAASGFTFSSYAMSWVRQAPGKGLEWVSAISGGGDNTYYADSVKGRFTISRDNSKNTLYLQMNSLRAEDTAVYFCAKNPITVVPAAWDRGYFDLWGRGTLVTVSS
VL: SYELTQPPSVSVAPRKTARITCGGNNIGSYSVHWYQQRPGQAPVLVVHDDSDRPSGIPERFSGSNSGNTATLTISRVEAGDEADYYCQVWDSSSDHRGVFGGGTKLTVL
With B1, the binding result in assay [1] and in assay [2] was “binds” each time.

B2: C68.185 (antibody, V domains shown)
VH: QVQLVQSGAEVKKPGASVKVSCKTSGYAFTDHYVHWVRQAPGQGLEWMGVINPSGVGTSYAQMFQDRVTLTSDTSTSTVYMVLSSLRSEDTAVYYCVRDDYGVPARGWFDPWGQGTLVTVSS
VL: EVVLTQSPATLSLSPGERATLSCRASQSISSYLAWYQQKPGQAPRLLIYDASNRATGVPARFSGSGSGADFTLTISSLEAEDFALYYCQHRSNWLYTFGQGTKLEIK
Turning to B2, the binding result in assay [1] and in assay [3] was “binds” each time. In addition, the “fold lower binding than to SARS-CoV-1 RBD” value in assay [2] was roughly 10 fold.

B3: C68.201 (antibody, V domains shown)
VH: EVQLVQSGAEVKKPGESLKISCTGSGYSFAYYWIGWVRQMPGKGLEWMGNIYPGDSDTRYSPSFQGQITISSDKSISTAYLQWSSLKASDTAMYYCATRYSGTHYVGIDAFEIWGQGTMVTVSS
VL: not shown
For the molecule B3, the binding result in assay [4] and in assay [5] was “binds” in each case.
